According to patent EP4714976A1 (Sunshine Lake Pharma Co., Ltd., dated 2026):

Tests used:
[1] = target: T1, human FGFR2b (Kaixia Biotechnology, catalog number FGR-HM1BB) (human, UniProt P21802-3 22-378); assay: ELISA, FGFR2b coated at 1 µg/ml
T1 construct: extracellular domain; bought; also called hFGFR2b; human FGFR2b protein

[2] = target: T1, human FGFR2b (Kaixia Biotechnology, …); assay: BLI, antibody on AHC2 sensor
[3] = target: FGFR2c (acro) (UniProt P21802 22-377); assay: ELISA, antibody 10 µg/mL
[4] = target: T2, recombinant cynomolgus monkey FGFR2b (cynomolgus monkey); assay: ELISA, antibody 1ug/mL
T2 construct: extracellular domain; bought; also called cynomolgus macaque FGFR2b

[5] = target: T3, FGFR2b on KATO III cells (human, UniProt P21802-3 22-822); assay: flow cytometry, KATO III cells
T3 construct: whole, on cells; also called KATO III cells that overexpress FGFR2b

[6] = target: T4, extracellular domain of FGFR2c protein (Example 1) (UniProt P21802 22-377); assay: phage ELISA
T4 construct: extracellular domain

[7] = target: T4, extracellular domain of FGFR2c protein …; assay: phage ELISA; remark: listed apart in the source

FGFR2c (acro), sequence (P21802 22-377): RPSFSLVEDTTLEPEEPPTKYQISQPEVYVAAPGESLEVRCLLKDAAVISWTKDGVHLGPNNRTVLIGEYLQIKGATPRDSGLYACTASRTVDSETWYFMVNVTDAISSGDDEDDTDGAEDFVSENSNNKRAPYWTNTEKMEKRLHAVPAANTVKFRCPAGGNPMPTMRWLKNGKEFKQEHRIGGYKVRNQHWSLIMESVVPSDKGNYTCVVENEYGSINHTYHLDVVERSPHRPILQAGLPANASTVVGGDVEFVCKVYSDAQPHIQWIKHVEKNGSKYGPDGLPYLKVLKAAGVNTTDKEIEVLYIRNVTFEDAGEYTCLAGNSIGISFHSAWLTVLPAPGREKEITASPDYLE
T4 sequence (P21802 22-377): as above
T3 sequence (P21802 other isoform, or with tags, fused parts or gaps): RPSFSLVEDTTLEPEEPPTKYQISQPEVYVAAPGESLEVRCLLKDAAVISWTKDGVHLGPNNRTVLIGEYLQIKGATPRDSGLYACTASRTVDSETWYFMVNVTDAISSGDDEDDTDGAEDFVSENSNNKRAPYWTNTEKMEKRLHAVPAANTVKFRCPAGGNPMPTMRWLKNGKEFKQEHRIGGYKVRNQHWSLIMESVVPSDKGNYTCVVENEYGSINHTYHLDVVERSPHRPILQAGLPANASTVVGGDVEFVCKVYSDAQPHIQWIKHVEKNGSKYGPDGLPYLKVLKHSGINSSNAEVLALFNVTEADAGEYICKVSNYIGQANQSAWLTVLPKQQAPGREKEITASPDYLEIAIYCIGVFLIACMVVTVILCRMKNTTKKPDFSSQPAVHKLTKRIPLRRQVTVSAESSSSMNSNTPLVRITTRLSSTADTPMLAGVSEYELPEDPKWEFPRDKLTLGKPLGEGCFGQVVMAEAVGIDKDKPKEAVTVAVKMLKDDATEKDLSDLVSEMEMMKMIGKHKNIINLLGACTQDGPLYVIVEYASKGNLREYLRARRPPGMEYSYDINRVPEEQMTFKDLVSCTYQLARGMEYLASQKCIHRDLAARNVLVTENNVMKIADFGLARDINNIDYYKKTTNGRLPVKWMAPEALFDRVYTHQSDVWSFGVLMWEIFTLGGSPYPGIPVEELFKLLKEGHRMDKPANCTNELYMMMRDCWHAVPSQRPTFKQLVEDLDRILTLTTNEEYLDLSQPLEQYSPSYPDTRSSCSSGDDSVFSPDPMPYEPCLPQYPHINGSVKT
T1 sequence (P21802 other isoform, or with tags, fused parts or gaps): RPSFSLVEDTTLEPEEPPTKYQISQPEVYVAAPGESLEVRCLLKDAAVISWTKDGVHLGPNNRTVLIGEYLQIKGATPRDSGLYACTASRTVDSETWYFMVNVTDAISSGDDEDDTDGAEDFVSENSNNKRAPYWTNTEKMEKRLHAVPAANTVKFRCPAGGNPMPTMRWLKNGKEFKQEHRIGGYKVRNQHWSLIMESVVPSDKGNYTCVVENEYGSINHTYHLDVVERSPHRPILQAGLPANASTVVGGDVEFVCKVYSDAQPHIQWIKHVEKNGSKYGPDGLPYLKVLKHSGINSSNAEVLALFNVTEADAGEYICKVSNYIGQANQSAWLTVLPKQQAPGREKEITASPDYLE

B1: 3D6 scFv-Fc (Fc fusion)
chain: QVQLQQSGAELVKPGASVKMSCKASGYTFRYYNMHWVKRTPGQGLEWIGLIYPDNGDTSYNQKFKGKATLTADTSSSTAYMQLSSLTSEDSAVYYCARGGLDYWGQGTSLTVSSGGGGSGGGGSGGGGSDIQMTQSPASLSVSVGETVTITCRASENIYSNLAWYQQKQGKSPQLLVYNAKTLADGVPSRFSGSGSGTQYSLKINSLQPEDFGSYYCQHFWSTPFTFGSGTKLELKESKYGPPCPPCPAPEAAGGPSVFLFPPKPKDTLMISRTPEVTCVVVDVSQEDPEVQFNWYVDGVEVHNAKTKPREEQFNSTYRVVSVLTVLHQDWLNGKEYKCKVSNKGLPSSIEKTISKAKGQPREPQVYTLPPSQEEMTKNQVSLTCLVKGFYPSDIAVEWESNGQPENNYKTTPPVLDSDGSFFLYSKLTVDKSRWQEGNVFSCSVMHEALHNHYTQKSLSLSLG
notes: scFv-Fc dimer
In the case of B1, the EC50 [1] is reported as 0.0369 µg/mL, the Kd [2] is reported as 15 nM and the koff [2] is reported as 0.00114 s⁻¹. For the same binder, the kon [2] was 75900 M⁻¹ s⁻¹, the “OD (450 nm) value” [3] was 0.542 and the “OD (450 nm) value” [4] was 3.4. The EC50 [5] was 0.136 µg/mL.

B2: 1C10 scFv-Fc (Fc fusion)
chain: QVQLQQSGAELVKPGASVKMSCKASGYTFRYYNMHWVKRTPGQGLEWIGLIYPDNGDTSYNQKFKGKATLTADTSSSTAYMQLSSLTSEDSAVYYCARGGLDYWGQGTSLTVSSGGGGSGGGGSGGGGSDIVMTQSPASLSASVGETVTITCRASGNIHNYLAWYQQKQGKSPQLLVYNAKTLADGVPSRFSGSGSGTQYSLKINSLQPEDFGSYYCQHFWSTPYTFGGGTKLEMKESKYGPPCPPCPAPEAAGGPSVFLFPPKPKDTLMISRTPEVTCVVVDVSQEDPEVQFNWYVDGVEVHNAKTKPREEQFNSTYRVVSVLTVLHQDWLNGKEYKCKVSNKGLPSSIEKTISKAKGQPREPQVYTLPPSQEEMTKNQVSLTCLVKGFYPSDIAVEWESNGQPENNYKTTPPVLDSDGSFFLYSKLTVDKSRWQEGNVFSCSVMHEALHNHYTQKSLSLSLG
notes: scFv-Fc dimer
B2 gave an EC50 [1] of 0.0159 µg/mL, a Kd [2] of 11.1 nM and a koff [2] of 0.00278 s⁻¹. For the same binder, the kon [2] was 250000 M⁻¹ s⁻¹, the “OD (450 nm) value” [3] was 0.553 and the “OD (450 nm) value” [4] was 3.3. For the same binder, the EC50 [5] was 0.152 µg/mL.

B3: 3B7 scFv displayed on phage (scFv)
scFv: EVQLQQSGAELVKPGASVKMSCKASGYTFRYYNMHWVKRTPGQGLEWIGLIYPDNGDTSYNQKFKGKATLTADTSSSTAYMQLSSLTSEDSAVYYCARGGFDYWGQGTTLTVSSGGGGSGGGGSGGGGSDIQMTQSPASLSASVGETVTITCGASENIYGALNWYQRKQGKSPQLLIYGATNLADGMSSRFSGSGSGRQYSLKISSLHPDDVATYYCQNVLSTPYTFGGGTKLELK
In the case of B3, the “OD (450 nm) value” [6] is reported as 0.043 and the binding result [7] is reported as “no binding”.

B4: 3C9 scFv displayed on phage (scFv)
scFv: EIQLQQSGAELVKPGASVKMSCKASGYIFRYYNMHWVKRTPGQGLEWIGLIYPDNGDTSYNQKFKGKATLTADTSSSTAYMQLSSLTSEDSAVYYCARGGLDYWGQGTTLTVSSGGGGSGGGGSGGGGSDIQMIQSPASLSASVGETVTITCGASENIYGALNWYQRKQGKSPQLLIYGATNLADGMSSRFSGSGSGRQYSLKISSLHPDDVATYYCQNVLSTPYTFGGGTKLEIK
For B4, the “OD (450 nm) value” [6] was 0.033 and the binding result [7] was “no binding”.

B5: 3B4 scFv displayed on phage (scFv)
scFv: EVQLQQSGADLVKPGASVKMSCKASGYTFSYYNMHWVRRTPGQGLEWIGLIYPDNGDTSYNQKFKGKATLTADTSSSTAYMQLSSLTSEDSAVYYCARGGLDYWGQGTTLTVSSGGGGSGGGGSGGGGSDIQMIQSPASMSASVGETVTITCGASENIYGALNWYQRKQGKSPQLLIYGATNLADGMSSRFSGSGSGRQYSLKISSLHPDDVATYYCQNVLSTPYTFGGGTKLEMK
With B5 the “OD (450 nm) value” [6] was 0.042 and the binding result [7] was “no binding”.

B6: 3H9 scFv-Fc (Fc fusion)
chain: EIQLQQSGAELVKPGASVKMSCKASGYTFSFYNMHWVKRTPGQGLEWIGLIYPDNGDTSYNQKFKGKATLTADTSSSTAYMQLSSLTSEDSAVYYCARGGLDYWGQGTTLTVSSGGGGSGGGGSGGGGSDIVLTQSPASLSVSVGETVTITCRASENIYSNLAWYQQKQGKSPQLLVYAATNLADGVPSRFSGSGSGTQYSLKINSLQSEDFGSYYCQHFWGTPYTFGGGTKLELKESKYGPPCPPCPAPEAAGGPSVFLFPPKPKDTLMISRTPEVTCVVVDVSQEDPEVQFNWYVDGVEVHNAKTKPREEQFNSTYRVVSVLTVLHQDWLNGKEYKCKVSNKGLPSSIEKTISKAKGQPREPQVYTLPPSQEEMTKNQVSLTCLVKGFYPSDIAVEWESNGQPENNYKTTPPVLDSDGSFFLYSKLTVDKSRWQEGNVFSCSVMHEALHNHYTQKSLSLSLG
notes: scFv-Fc dimer
In the case of B6, the EC50 [1] is reported as 0.0278 µg/mL, the Kd [2] is reported as 5.69 nM and the koff [2] is reported as 0.00152 s⁻¹. The kon [2] was 267000 M⁻¹ s⁻¹, the “OD (450 nm) value” [3] was 0.45 and the “OD (450 nm) value” [4] was 3.29. For the same binder, the EC50 [5] was 0.161 µg/mL.

B7: 3H6 scFv displayed on phage (scFv)
scFv: QVQLQQSGAELVKPGASVKMSCKASGYTFSFYNIHWVRQTPGQGLEWIGLIYPDNGDTSYNQKFKAKATLTADKSSSTAYMQLSSLTSEDSAVYYCARGGFDYWGQGTTLTVSSGGGGSGGGGSGGGGSDIQMTQSPASLSASVGETVTITCRASENIYSYLAWYQQKQGKSPQLLVYNAKTLAEGVPSRFSGSGSGTQFSLKINSLQPEDFGSYYCQHHYGTPYTFGGGTKLEMK
B7 was tested, and the “OD (450 nm) value” [6] was 0.062 and the binding result [7] was “no binding”.

B8: 2B1 scFv displayed on phage (scFv)
scFv: EVQLQQSGAELVKPGASVKMSCKASGYTFASYNLHWVKQTPGQGLEWIGLIYPENGDTSYNQKFKGKATLTADKSSSTAYIQLSSLTSEDSAVYFCARGGFDYWGQGTSLTVSSGGGGSGGGGSGGGGSDIQMIQSPASLSVSVGETVTITCRASENIYSNLAWYQQKQGKSPQLLVYNAKTLADGVPSRFSGSGSGTQYSLKINSLQPEDFGSYYCQHFWSTPYTFGGGTKLEIK
In the case of B8, the “OD (450 nm) value” [6] is reported as 0.049 and the binding result [7] is reported as “no binding”.

B9: 3A8 scFv displayed on phage (scFv)
scFv: QVQLQQSGAELVKPGASVKMSCKASGYTFTIYNIHWVRQTPGQGLEWIGLIYPDNGDTSYNQKFKAKATLTADKSSSTAYMQLSSLTSEDSAVYYCARGGFDYWGQGTSLTVSSGGGGSGGGGSGGGGSDIVMTQSQKFMSTSVGDRVSVTCKASQNVGTNVAWYQQKPGQSPKALIYSASYRYSGVPDRFTGSGSGTDFTLTISNVQAEDLADYFCQQHYSTPYTFGGGTKLEMK
With B9 the “OD (450 nm) value” [6] was 0.065 and the binding result [7] was “no binding”.

B10: 3F11 scFv displayed on phage (scFv)
scFv: QVQLQQSGAELVKPGASVKMSCKASGYTFAPYNIHWVRQTPGQGLEWIGLIYPDNGDTSYNQKFKAKATLTADKSSSTAYMQLSSLTSEDSAVYYCARGGFDYWGQGTSLTVSSGGGGSGGGGSGGGGSDIVMTQSQKFMSTSVGDRVSVTCKASQNVGTNVAWYQQKPGQSPKALIYSASYRYSGVPDRFTGSGSGTDFTLTISNVQSEDLAEYFCQQHYSTPFTFGSGTKLEIK
For B10, the “OD (450 nm) value” [6] was 0.045 and the binding result [7] was “no binding”.

B11: 3E7 scFv displayed on phage (scFv)
scFv: QVQLQQSGAELVKPGASVKMSCKASGYTFTIYNIHWVRQTPGQGLEWIGLIYPDNGDTSYNQKFKAKATLTADKSSSTAYMQLSSLTSEDSAVYYCARGGFDYWGQGTTLTVSSGGGGSGGGGSGGGGSNIVMTQSQKFMSTSVGDRVSVTCKASQNVGTNVAWYQQKPGQSPKALIYSASYRYSGVPDRFTGSGSGTDFTLTISGVQAEDLADYYCQQHYNTPYTFGGGTKLEIK
B11 was tested, and the “OD (450 nm) value” [6] was 0.034 and the binding result [7] was “no binding”.
